Experimental data taken from patent US20230407373A1 (priority 2020, published 2023).
Entries after “also recorded” stand apart in the source; their conditions may differ. Read-outs that look alike come from different tables or passages of the source.

B1: CELF1: host protein, UniProt Q92879 (protein, UniProt Q92879 1-486, looked up)
CUGBP Elav-like family member …: MNGTLDHPDQPDLDAIKMFVGQVPRTWSEKDLRELFEQYGAVYEINVLRDRSQNPPQSKGCCFVTFYTRKAALEAQNALHNMKVLPGMHHPIQMKPADSEKNNAVEDRKLFIGMISKKCTENDIRVMFSSFGQIEECRILRGPDGLSRGCAFVTFTTRAMAQTAIKAMHQAQTMEGCSSPMVVKFADTQKDKEQKRMAQQLQQQMQQISAASVWGNLAGLNTLGPQYLALYLQLLQQTASSGNLNTLSSLHPMGGLNAMQLQNLAALAAAASAAQNTPSGTNALTTSSSPLSVLTSSGSSPSSSSSNSVNPIASLGALQTLAGATAGLNVGSLAGMAALNGGLGSSGLSNGTGSTMEALTQAYSGIQQYAAAALPTLYNQNLLTQQSIGAAGSQKEGPEGANLFIYHLPQEFGDQDLLQMFMPFGNVVSAKVFIDKQTNLSKCFGFVSYDNPVSAQAAIQSMNGFQIGMKRLKVQLKRSKNDSKPY
B2: ZC3HAV1: host protein, UniProt Q7Z2W4 (protein, UniProt Q7Z2W4 2-902, looked up)
Zinc finger CCCH-type …: ADPEVCCFITKILCAHGGRMALDALLQEIALSEPQLCEVLQVAGPDRFVVLETGGEAGITRSVVATTRARVCRRKYCQRPCDNLHLCKLNLLGRCNYSQSERNLCKYSHEVLSEENFKVLKNHELSGLNKEELAVLLLQSDPFFMPEICKSYKGEGRQQICNQQPPCSRLHICDHFTRGNCRFPNCLRSHNLMDRKVLAIMREHGLNPDVVQNIQDICNSKHMQKNPPGPRAPSSHRRNMAYRARSKSRDRFFQGSQEFLASASASAERSCTPSPDQISHRASLEDAPVDDLTRKFTYLGSQDRARPPSGSSKATDLGGTSQAGTSQRFLENGSQEDLLHGNPGSTYLASNSTSAPNWKSLTSWTNDQGARRKTVFSPTLPAARSSLGSLQTPEAVTTRKGTGLLSSDYRIINGKSGTQDIQPGPLFNNNADGVATDITSTRSLNYKSTSSGHREISSPRIQDAGPASRDVQATGRIADDADPRVALVNDSLSDVTSTTSSRVDDHDSEEICLDHLCKGCPLNGSCSKVHFHLPYRWQMLIGKTWTDFEHMETIEKGYCNPGIHLCSVGSYTINFRVMSCDSFPIRRLSTPSSVTKPANSVFTTKWIWYWKNESGTWIQYGEEKDKRKNSNVDSSYLESLYQSCPRGVVPFQAGSRNYELSFQGMIQTNIASKTQKDVIRRPTFVPQWYVQQMKRGPDHQPAKTSSVSLTATFRPQEDFCFLSSKKYKLSEIHHLHPEYVRVSEHFKASMKNFKIEKIKKIENSELLDKFTWKKSQMKEEGKLLFYATSRAYVESICSNNFDSFLHETHENKYGKGIYFAKDAIYSHKNCPYDAKNVVMFVAQVLVGKFTEGNITYTSPPPQFDSCVDTRSNPSVFVIFQKDQVYPQYVIEYTEDKACVIS

Assays:
[1] = tested on: SARS-CoV-2 gRNA; assay type: binding
[2] = tested on: SARS-CoV-2; assay type: cell-based; details: for change in viral RNA levels (gRNA, N sgRNA) after siRNA depletion: Calu-3 cells, 50 nM siRNA, RT-qPCR, relative to siNC
[3] = tested on: gRNA of HCoV-OC43; assay type: binding; details: for target (spectral count, OC43 Probe I RNP capture) / background (spectral count, no-probe control): type n_48_v: 48 hours post-infection; for target (spectral count, OC43 Probe I RNP capture): infected cells, unweighted spectral count; for background (spectral count, no-probe control): no-probe control on infected cells
[4] = tested on: HCoV-OC43 gRNA and sgRNA; assay type: binding; details: for target (unweighted spectral count, OC43 Probe II capture) / target (spectral count) / background (spectral count): 36 hpi; for target (unweighted spectral count, OC43 Probe II capture): type n_36_v, FDR<10%; for target (unweighted spectral count, OC43 Probe II capture) / target (unweighted spectral count): tested against no-probe control; for target (unweighted spectral count): OC43 Probe II, infected cells; for target (unweighted spectral count, OC43 Probe II) / background (unweighted spectral count, no-probe control): type n_48_v, 48 hpi; for target (unweighted spectral count, OC43 Probe II): OC43 Probe II capture on infected cells; for background (unweighted spectral count, no-probe control): no-probe control on infected cells; for target (spectral count) / background (spectral count): type s_36_m, Probe II; for target (spectral count): HCoV-OC43-infected HCT-8 cells; for background (spectral count): uninfected-probe control
[5] = tested on: SARS-CoV-2 gRNA and sgRNAs; assay type: binding; details: for target (unweighted spectral count in RNP capture): Probe II capture, LC-MS/MS LFQ; for background (unweighted spectral count in control): no-probe control pull-down, used as background for Probe II

Molecule | enrichment in SARS-CoV-2 Probe I RNP capture [1] | change in viral RNA levels (gRNA, N sgRNA) after siRNA depletion [2] | target (spectral count) ([3]; type g_36_m, HCoV-OC43-infected HCT-8 cells, 36 hpi, Probe I) | background (spectral count) ([3]; type g_36_m, uninfected-probe control, 36 hpi, Probe I) | target (spectral count, OC43 Probe I RNP capture) [3] | background (spectral count, no-probe control) [3] | target (unweighted spectral count, OC43 Probe II capture) [4] | target (unweighted spectral count) ([4]; 24 hpi (type n_24_v)) | target (unweighted spectral count, OC43 Probe II) [4] | background (unweighted spectral count, no-probe control) [4] | target (spectral count) [4] | background (spectral count) [4] | enrichment in SARS-CoV-2 Probe II RNP capture [5] | target (unweighted spectral count in RNP capture) [5] | background (unweighted spectral count in control) [5] | target (unweighted spectral count of the protein in the RNP capture) ([1]; […], LC-MS/MS, Probe I sample (first 199 lines of Table 2)) | antiviral or proviral role of the host protein indicated by knockdown [2] | target (unweighted spectral count) ([4]; 12 hpi (type n_12_v))
B1 | found in the SARS-CoV-2 experiments | increased viral RNAs; also recorded: only modest | 15 | 1 | 16 | 1 | 14 | 6 | 14 | 1 | 14 | 1 | found in the SARS-CoV-2 experiments | 25 | 1 | – | – | –
B2 | enriched; also recorded: found in the SARS-CoV-2 experiments | increased viral RNAs | – | – | 17 | 1 | 18 | 13 | 22 | 1 | 18 | 1 | enriched; also recorded: found in the SARS-CoV-2 experiments | 48 | 1 | 31 | may act as antiviral factors | 8
